Measured values: US20110243962A1 (GENEURO, published 2011)

Tests used:
[1] = biological target: T1, MSRV ENV surface domain fragment (ENV-SU), recombinant from E. coli (MSRV (Multiple Sclerosis associated …)); assay: cell-based or functional assay
T1 chain: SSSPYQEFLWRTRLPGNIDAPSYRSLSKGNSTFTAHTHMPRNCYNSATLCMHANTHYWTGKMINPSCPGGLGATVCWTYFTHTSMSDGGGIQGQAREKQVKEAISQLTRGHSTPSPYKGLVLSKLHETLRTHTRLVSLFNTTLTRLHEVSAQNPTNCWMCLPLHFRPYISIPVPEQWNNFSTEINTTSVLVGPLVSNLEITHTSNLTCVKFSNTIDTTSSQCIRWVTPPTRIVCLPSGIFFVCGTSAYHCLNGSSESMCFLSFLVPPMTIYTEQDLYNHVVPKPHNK

[2] = biological target: T2, MSRV complete ENV protein (ENV-T), recombinant from E. coli (MSRV (Multiple Sclerosis associated …)); assay: cell-based or functional assay
T2 chain: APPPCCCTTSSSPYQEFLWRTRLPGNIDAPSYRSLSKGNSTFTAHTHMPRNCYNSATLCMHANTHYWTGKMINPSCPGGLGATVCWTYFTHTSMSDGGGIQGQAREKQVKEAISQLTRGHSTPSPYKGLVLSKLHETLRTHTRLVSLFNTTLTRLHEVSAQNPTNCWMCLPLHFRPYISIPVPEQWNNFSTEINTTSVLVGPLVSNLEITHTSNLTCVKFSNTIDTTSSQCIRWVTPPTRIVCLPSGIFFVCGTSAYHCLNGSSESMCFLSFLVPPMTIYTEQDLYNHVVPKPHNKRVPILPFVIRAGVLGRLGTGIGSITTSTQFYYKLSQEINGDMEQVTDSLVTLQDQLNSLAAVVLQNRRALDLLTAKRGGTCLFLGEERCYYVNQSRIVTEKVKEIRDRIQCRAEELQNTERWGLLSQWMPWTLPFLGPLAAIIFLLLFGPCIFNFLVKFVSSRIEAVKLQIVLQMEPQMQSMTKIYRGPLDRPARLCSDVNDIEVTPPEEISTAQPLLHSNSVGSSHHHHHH

B1: Humanized GNb AC1 IgG4 antibody (stabilized, H2 S241P heavy chain and VK3 light chain) (antibody, V domains shown)
VH: QVQLVQSGAEVKKPGSSVKVSCKASGYTFTDYEMHWVRQAPGQGLEWIGAVAPETGGTAYNQKFKGRATITADKSTSTAYMELSSLRSEDTAVYYCTSTVVPFAYWGQGTLVTVSS
VL: QIQLTQSPSSLSASVGDRVTITCSASSSVSYMYWYQQKPGKAPKAWIYRTSNLASGVPSRFSGSGSGTDYTLTISSLQPEDFATYYCQQYQSLPLTFGGGTKVEIKR
B1 was tested, and the “IFN-g at 72 h in PBMC culture with ENV-SU 0.5 ug/ml, MAb ratio 10/1 (no antibody: 336)” value [1] was 46 and the “IL-6 at 24 h in PBMC culture with ENV-T 0.1 ug/ml, MAb ratio 10/1 (no antibody: 4363)” value [2] was 2910.
